Assay results: US10555963B2, “Klotho protein and related compounds for the treatment and diagnosis of cancer” (TEL HASHOMER MEDICAL RESEARCH INFRASTRUCTURE AND SERVICES …, priority 2007, dated 2020)

Legend:
IGF-1R = molecular target: T1, IGF-1R (Homo sapiens, UniProt P08069); experiment: Co-immunoprecipitation of HA-klotho protein and IGF-1R in MCF-7 cells; type: binding; details: MCF-7 cells expressing HA-klotho protein
T1 construct: endogenous in cells; host or cells: MCF-7 cells expressing HA-klotho (stably or transiently)
Protocol: Cells were harvested as for Western blot, and 400 μg protein lysate were incubated with IgG-Sepharose (Sigma) or protein A/G (Pierce, Rockford, Ill.) beads at 4° C. for 1 h to eliminate non-specifically bound proteins. These beads were subsequently used as a negative control. The supernatants were then incubated for 4 hours with either 2 μg anti-HA antibody (Sigma) or 2 μl of anti-IGF-1β-R (Santa Cruz Biotechnology) and IgG-Sepharose or protein A/G (Pierce, Rockford, Ill.), respectively, was added. Following an overnight incubation, the beads were washed 6 times in RIPA buffer and the immunoprecipitated materials were separated by SDS-PAGE and detected by Western blotting.
As klotho protein can bind FGFR and other membrane proteins, binding of klotho protein to the IGF-1R was examined. Co-immunoprecipitation assays were conducted using MCF-7 cells either stably (FIG. 10) or transiently (data not shown) expressing HA-klotho protein. HA-klotho protein was detected by Western blotting following immunoprecipitation of the IGF-1R, and the IGF-1R was detected following immunoprecipitation using HA-directed antibody.

C/EBPβ in MCF-7 cells = experiment: C/EBPβ levels after klotho protein over-expression; type: cell-based, human; details: over-expression vs empty vector
Protocol: In further experiments, MCF-7, MDA-MB-231 or HEK-293 cells were transfected with either pcDNA3-HA-KL or empty vector and treated with IGF-1 (12.5 nM, 15 min).
C/EBPβ is a down-stream target of the GSK3β pathway, which is suppressed following stimulation by IGF-1 (Li et al., 2007). […] The effects of over-expression of klotho protein on C/EBPβ levels were therefore analyzed.

[1] = system: IGF-1 pathway in Panc1 cells; experiment: IGF-1 pathway in Panc1 cells after klotho protein over-expression (immunoblot); type: cell-based, human; details: IGF-1 12.5 nM, 15 min
Protocol: For pancreatic cells, protein extraction and Western blotting was performed as described (Wolf et al., 2008).
Panc1 cells were transfected with either klotho protein-HA expression plasmid (KL-HA) or a control vector (pcDNA3). After 24 hrs, cells were serum starved for 48 hr and treated with IGF-1 (12.5 nM, 15 min). Following treatment, cells were harvested and proteins were resolved and immunoblotted using antibodies directed against phosphorylated (p) and total (t) IGF-1R, p- and t-AKT, p- and t-ERK1/2.

[2] = system: Colo357, MiaPaCa2, and Panc1; experiment: Colony formation assay of pancreatic carcinoma cell lines transfected with klotho protein vector; type: cell-based, human; details: pcDNA3-HA-KL vs empty vector; G418 two weeks
Protocol: Two days following transfection with the indicated plasmids, G418 (900 μg/ml for Panc1, 1000 μg/ml for MiaPaCa2 and 750 μg/ml for Colo357, HEK-293 and BON1) was added to the culture media. At day 14, cells were stained using crystal violet (Sigma-Aldrich) and quantitated as described (Wolf et al., 2008).
For the colony formation assay, pancreatic carcinoma cell lines Colo357, MiaPaCa2, and Panc1 were transfected with either a HA-tagged klotho protein expression vector (pcDNA3-HA-KL) or an empty vector (pcDNA3). Transfected cells were cultured in media containing G418 for two weeks. Colonies were stained with crystal violet and photographed.

T1 sequence (P08069 31-1367): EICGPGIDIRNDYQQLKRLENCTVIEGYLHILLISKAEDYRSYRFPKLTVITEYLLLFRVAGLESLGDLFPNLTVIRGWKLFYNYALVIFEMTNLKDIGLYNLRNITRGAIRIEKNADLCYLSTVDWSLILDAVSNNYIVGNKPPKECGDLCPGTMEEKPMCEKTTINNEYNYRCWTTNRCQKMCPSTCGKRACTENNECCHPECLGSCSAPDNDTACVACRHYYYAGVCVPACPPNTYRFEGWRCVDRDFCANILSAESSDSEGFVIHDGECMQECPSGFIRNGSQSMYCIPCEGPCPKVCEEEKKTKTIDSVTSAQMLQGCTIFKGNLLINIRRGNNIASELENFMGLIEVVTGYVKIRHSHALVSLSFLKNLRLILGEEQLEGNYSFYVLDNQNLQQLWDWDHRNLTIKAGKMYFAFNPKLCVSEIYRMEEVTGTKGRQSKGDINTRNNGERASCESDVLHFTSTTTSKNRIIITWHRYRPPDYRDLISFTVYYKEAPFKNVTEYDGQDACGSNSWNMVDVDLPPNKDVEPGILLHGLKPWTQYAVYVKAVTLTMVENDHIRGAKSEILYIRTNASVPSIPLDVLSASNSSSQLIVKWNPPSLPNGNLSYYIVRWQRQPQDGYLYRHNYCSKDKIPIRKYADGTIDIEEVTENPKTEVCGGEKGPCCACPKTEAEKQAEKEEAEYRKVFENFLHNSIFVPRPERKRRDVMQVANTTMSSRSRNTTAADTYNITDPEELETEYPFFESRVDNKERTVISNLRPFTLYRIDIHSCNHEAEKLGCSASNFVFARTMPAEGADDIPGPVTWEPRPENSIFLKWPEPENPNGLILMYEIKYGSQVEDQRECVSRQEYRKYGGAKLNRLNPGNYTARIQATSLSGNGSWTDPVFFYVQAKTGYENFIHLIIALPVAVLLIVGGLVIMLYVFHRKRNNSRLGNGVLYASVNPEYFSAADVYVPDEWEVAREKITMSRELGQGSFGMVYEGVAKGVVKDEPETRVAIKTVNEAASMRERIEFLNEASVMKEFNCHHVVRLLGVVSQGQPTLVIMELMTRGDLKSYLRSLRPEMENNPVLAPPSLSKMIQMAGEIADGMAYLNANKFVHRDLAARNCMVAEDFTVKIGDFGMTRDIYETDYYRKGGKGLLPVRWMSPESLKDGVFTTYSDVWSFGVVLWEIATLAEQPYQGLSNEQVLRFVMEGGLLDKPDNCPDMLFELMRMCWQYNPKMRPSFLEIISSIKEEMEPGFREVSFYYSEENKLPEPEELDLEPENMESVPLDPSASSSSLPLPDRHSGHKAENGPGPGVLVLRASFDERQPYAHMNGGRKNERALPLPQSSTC

interaction with the IGF-1 receptor (co-immunoprecipitation) (IGF-1R): interaction
B1: klotho protein: full length mouse Klotho (SEQ ID NO. 3) over-expressed in cells from HA-tagged expression vector pcDNA3-HA-KL (protein)
chain: MLARAPPRRPPRLVLLRLLLLHLLLLALRARCLSAEPGQGAQTWARFARAPAPEAAGLLHDTFPDGFLWAVGSAAYQTEGGWRQHGKGASIWDTFTHHSGAAPSDSPIVVAPSGAPSPPLSSTGDVASDSYNNVYRDTEGLRELGVTHYRFSISWARVLPNGTAGTPNREGLRYYRRLLERLRELGVQPVVTLYHWDLPQRLQDTYGGWANRALADHFRDYAELCFRHFGGQVKYWITIDNPYVVAWHGYATGRLAPGVRGSSRLGYLVAHNLLLAHAKVWHLYNTSFRPTQGGRVSIALSSHWINPRRMTDYNIRECQKSLDFVLGWFAKPIFIDGDYPESMKNNLSSLLPDFTESEKRLIRGTADFFALSFGPTLSFQLLDPNMKFRQLESPNLRQLLSWIDLEYNHPPIFIVENGWFVSGTTKRDDAKYMYYLKKFIMETLKAIRLDGVDVIGYTAWSLMDGFEWHRGYSIRRGLFYVDFLSQDKELLPKSSALFYQKLIEDNGFPPLPENQPLEGTFPCDFAWGVVDNYVQVDTTLSQFTDPNVYLWDVHHSKRLIKVDGVVAKKRKPYCVDFSAIRPQITLLREMRVTHFRFSLDWALILPLGNQTQVNHTVLHFYRCMISELVHANITPVVALWQPAAPHQGLPHALAKHGAWENPHTALAFADYANLCFKELGHWVNLWITMNEPNTRNMTYRAGHHLLRAHALAWHLYDDKFRAAQKGKISIALQADWIEPACPFSQNDKEVAERVLEFDIGWLAEPIFGSGDYPRVMRDWLNQKNNFLLPYFTEDEKKLVRGSFDFLAVSHYTTILVDWEKEDPMKYNDYLEVQEMTDITWLNSPSQVAVVPWGLRKVLNWLRFKYGDLPMYVTANGIDDDPHAEQDSLRIYYIKNYVNEALKAYVLDDINLCGYFAYSLSDRSAPKSGFYRYAANQFEPKPSMKHYRRIIDSNGFLGSGTLGRFCPEEYTVCTECGFFQTRKSLLVFISFLVFTFIISLALIFHYSKKGQRSYK
modifications: HA tag
C/EBPβ levels (C/EBPβ in MCF-7 cells): significant up-regulation
phosphorylation of IGF-1R, AKT1 and ERK1/2 [1]: reduced phosphorylation
number and size of surviving colonies [2]: significantly reduced
